B1: KRT13 (parent)
chain: TSSASVTTTSNASGRRTSDVRRP
B2: PTPN9 (parent)
chain: TQHLPRECLPENLGGYVKIDLATW
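Further: lentivirally expressed fusions sorted by FACS into six bins by GFP to DsRed ratio, PSI derived from sequencing read proportions per bin multiplied by bin number.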

Variants of: B1
Test: protein stability index of a GFP-peptide fusion (GPS, HEK-293T) (PSI 1-6); higher = more stable
Conditions: c terminus: native
In the case of TSSPSVTTTSNASGRRTSDVRRP, the protein stability index is reported as 1.7. For TSSNSVTTTSNASGRRTSDVRRP, the protein stability index was 2.16. In the case of TSSDSVTTTSNASGRRTSDVRRP, the protein stability index is reported as 3.4. With TSSTSVTTTSNASGRRTSDVRRP the protein stability index was 2.02. Work on TSSWSVTTTSNASGRRTSDVRRP yielded a protein stability index of 2.44. In the case of TSSQSVTTTSNASGRRTSDVRRP, the protein stability index is reported as 2.03. TSSKSVTTTSNASGRRTSDVRRP showed a protein stability index of 3.21. For TSSGSVTTTSNASGRRTSDVRRP, the protein stability index was 2.25. For TSSISVTTTSNASGRRTSDVRRP, the protein stability index was 3.97. With TSSYSVTTTSNASGRRTSDVRRP the protein stability index was 2.51. TSSLSVTTTSNASGRRTSDVRRP showed a protein stability index of 3.6. Variant TSSHSVTTTSNASGRRTSDVRRP has a protein stability index of 2.6. In the case of TSSSSVTTTSNASGRRTSDVRRP, the protein stability index is reported as 1.03. For TSSESVTTTSNASGRRTSDVRRP, the protein stability index was 2.39. Variant TSSASVITTSNASGRRTSDVRRP has a protein stability index of 1.93. With TSSASVLTTSNASGRRTSDVRRP the protein stability index was 2.23. TSSASVWTTSNASGRRTSDVRRP showed a protein stability index of 3.38. For TSSASVKTTSNASGRRTSDVRRP, the protein stability index was 2.19. Variant TSSASVDTTSNASGRRTSDVRRP has a protein stability index of 3.4. In the case of TSSASVRTTSNASGRRTSDVRRP, the protein stability index is reported as 2.97. For TSSASVHTTSNASGRRTSDVRRP, the protein stability index was 2.54. For TSSASVNTTSNASGRRTSDVRRP, the protein stability index was 1.45. For TSSASVPTTSNASGRRTSDVRRP, the protein stability index was 1.66. With TSSASVFTTSNASGRRTSDVRRP the protein stability index was 2.24. With TSSASVMTTSNASGRRTSDVRRP the protein stability index was 3.08. In the case of TSSASVATTSNASGRRTSDVRRP, the protein stability index is reported as 2.46. Variant TSSASVQTTSNASGRRTSDVRRP has a protein stability index of 1.3. In the case of TSSASVGTTSNASGRRTSDVRRP, the protein stability index is reported as 1.17. Variant TSLASVTTTSNASGRRTSDVRRP has a protein stability index of 1.99. With TSKASVTTTSNASGRRTSDVRRP the protein stability index was 2.86. TSEASVTTTSNASGRRTSDVRRP showed a protein stability index of 2.8. With TSDASVTTTSNASGRRTSDVRRP the protein stability index was 2.57. In the case of TSHASVTTTSNASGRRTSDVRRP, the protein stability index is reported as 2.54. With TSTASVTTTSNASGRRTSDVRRP the protein stability index was 1.81. With TSIASVTTTSNASGRRTSDVRRP the protein stability index was 2.32. TSWASVTTTSNASGRRTSDVRRP gave a protein stability index of 1.65. TSYASVTTTSNASGRRTSDVRRP showed a protein stability index of 1.46. Work on TSVASVTTTSNASGRRTSDVRRP yielded a protein stability index of 1.93. Work on TSGASVTTTSNASGRRTSDVRRP yielded a protein stability index of 3.79. TSAASVTTTSNASGRRTSDVRRP gave a protein stability index of 2.61. Variant TSQASVTTTSNASGRRTSDVRRP has a protein stability index of 2.19. Work on TSCASVTTTSNASGRRTSDVRRP yielded a protein stability index of 1.96. Variant QSSASVTTTSNASGRRTSDVRRP has a protein stability index of 2.54. ESSASVTTTSNASGRRTSDVRRP showed a protein stability index of 2.33. Variant YSSASVTTTSNASGRRTSDVRRP has a protein stability index of 3.12. In the case of ISSASVTTTSNASGRRTSDVRRP, the protein stability index is reported as 2.25. In the case of ASSASVTTTSNASGRRTSDVRRP, the protein stability index is reported as 3.56. Work on HSSASVTTTSNASGRRTSDVRRP yielded a protein stability index of 2.22. In the case of WSSASVTTTSNASGRRTSDVRRP, the protein stability index is reported as 2.43. Variant NSSASVTTTSNASGRRTSDVRRP has a protein stability index of 1.34. Variant VSSASVTTTSNASGRRTSDVRRP has a protein stability index of 2.42. DSSASVTTTSNASGRRTSDVRRP showed a protein stability index of 2.46. FSSASVTTTSNASGRRTSDVRRP gave a protein stability index of 4.09. In the case of TSSAGVTTTSNASGRRTSDVRRP, the protein stability index is reported as 2.79. In the case of TSSAMVTTTSNASGRRTSDVRRP, the protein stability index is reported as 1.88. With TSSADVTTTSNASGRRTSDVRRP the protein stability index was 2.48. For TSSAKVTTTSNASGRRTSDVRRP, the protein stability index was 1.9. TSSATVTTTSNASGRRTSDVRRP showed a protein stability index of 4.31. Work on TSSANVTTTSNASGRRTSDVRRP yielded a protein stability index of 2.44. In the case of TSSACVTTTSNASGRRTSDVRRP, the protein stability index is reported as 3.15. With TSSAFVTTTSNASGRRTSDVRRP the protein stability index was 3.27. Variant TSSAEVTTTSNASGRRTSDVRRP has a protein stability index of 3.07. For TSSAQVTTTSNASGRRTSDVRRP, the protein stability index was 2.59. TSSAAVTTTSNASGRRTSDVRRP showed a protein stability index of 2.49. TSSAHVTTTSNASGRRTSDVRRP showed a protein stability index of 3.91. With TSSAIVTTTSNASGRRTSDVRRP the protein stability index was 2.37. In the case of TSSASRTTTSNASGRRTSDVRRP, the protein stability index is reported as 1.97. Work on TSSASLTTTSNASGRRTSDVRRP yielded a protein stability index of 2.31. With TSSASCTTTSNASGRRTSDVRRP the protein stability index was 4.46. For TSSASKTTTSNASGRRTSDVRRP, the protein stability index was 2.39. TSSASDTTTSNASGRRTSDVRRP showed a protein stability index of 2.88. TSSASGTTTSNASGRRTSDVRRP showed a protein stability index of 2.71. For TSSASQTTTSNASGRRTSDVRRP, the protein stability index was 1.69. Work on TSSASPTTTSNASGRRTSDVRRP yielded a protein stability index of 2.51. TSSASTTTTSNASGRRTSDVRRP showed a protein stability index of 3.08. TSSASNTTTSNASGRRTSDVRRP showed a protein stability index of 2.44. For TSSASFTTTSNASGRRTSDVRRP, the protein stability index was 1.93. Work on TSSASSTTTSNASGRRTSDVRRP yielded a protein stability index of 1.09. Variant TSSASATTTSNASGRRTSDVRRP has a protein stability index of 2.14. TFSASVTTTSNASGRRTSDVRRP showed a protein stability index of 2.04. TGSASVTTTSNASGRRTSDVRRP gave a protein stability index of 2.56. For TQSASVTTTSNASGRRTSDVRRP, the protein stability index was 1.06. In the case of TTSASVTTTSNASGRRTSDVRRP, the protein stability index is reported as 2.82. TVSASVTTTSNASGRRTSDVRRP gave a protein stability index of 3.9. For TDSASVTTTSNASGRRTSDVRRP, the protein stability index was 2.46. Work on TYSASVTTTSNASGRRTSDVRRP yielded a protein stability index of 2.08. For TPSASVTTTSNASGRRTSDVRRP, the protein stability index was 3.07. For TLSASVTTTSNASGRRTSDVRRP, the protein stability index was 2.02. With TNSASVTTTSNASGRRTSDVRRP the protein stability index was 3.25. In the case of TKSASVTTTSNASGRRTSDVRRP, the protein stability index is reported as 3.48. In the case of TESASVTTTSNASGRRTSDVRRP, the protein stability index is reported as 3.22.

Variants of: B2
Test: as above
Conditions: c terminus: a fixed tail appended
For TQHLPRECLPENLGGYVKTDLATW, the protein stability index was 2.94. TQHLPRECLPENLGGYVKVDLATW showed a protein stability index of 2.12. TQHLPRECLPENLGGYVKYDLATW showed a protein stability index of 2.46. TQHLPRECLPENLGGYVKWDLATW gave a protein stability index of 2.46.

From the supplement of paper PMC10567573
